We go through four molecules from paper doi:10.1101/2022.01.14.473406.

For data set [1], the target named is AP-Endonuclease 1 (APE1) (human) (UniProt P27695). Kind of data set: SPR. (In general: In SPR one partner is held on a chip, and binding of the other changes the refractive index at the surface.)
For data set [2], the target named is T1, DNA ligase I EE/AA (C-terminal, delta261) (Homo sapiens, UniProt P18858 262-919, E346A;E592A). Kind of data set: X-ray crystallography.
Data set [3] deals with T1, DNA ligase I EE/AA (C-terminal, …). Description: X-ray crystallography. The source holds these as a separate data set.

Where two headings read alike, the source gives them in different places.

T1 sequence (P18858 262-919 E346A/E592A): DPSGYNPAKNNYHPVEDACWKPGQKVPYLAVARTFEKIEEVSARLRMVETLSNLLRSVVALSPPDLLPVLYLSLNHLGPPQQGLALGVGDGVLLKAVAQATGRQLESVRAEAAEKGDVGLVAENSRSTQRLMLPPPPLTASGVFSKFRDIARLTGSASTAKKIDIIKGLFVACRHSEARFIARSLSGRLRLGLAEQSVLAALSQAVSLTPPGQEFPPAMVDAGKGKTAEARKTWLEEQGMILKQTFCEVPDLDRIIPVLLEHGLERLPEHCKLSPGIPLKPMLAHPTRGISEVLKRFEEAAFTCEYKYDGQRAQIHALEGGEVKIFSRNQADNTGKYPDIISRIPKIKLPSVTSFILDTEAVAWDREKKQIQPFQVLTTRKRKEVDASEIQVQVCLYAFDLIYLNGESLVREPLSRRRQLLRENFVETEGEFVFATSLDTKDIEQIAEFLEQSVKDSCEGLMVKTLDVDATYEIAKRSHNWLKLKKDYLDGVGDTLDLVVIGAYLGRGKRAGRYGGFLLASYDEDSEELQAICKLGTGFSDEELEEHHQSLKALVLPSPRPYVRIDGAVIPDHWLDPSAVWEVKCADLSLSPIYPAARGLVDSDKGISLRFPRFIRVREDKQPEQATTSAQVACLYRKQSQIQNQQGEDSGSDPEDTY
AP-Endonuclease 1 (APE1) (human), sequence (P27695 whole entry): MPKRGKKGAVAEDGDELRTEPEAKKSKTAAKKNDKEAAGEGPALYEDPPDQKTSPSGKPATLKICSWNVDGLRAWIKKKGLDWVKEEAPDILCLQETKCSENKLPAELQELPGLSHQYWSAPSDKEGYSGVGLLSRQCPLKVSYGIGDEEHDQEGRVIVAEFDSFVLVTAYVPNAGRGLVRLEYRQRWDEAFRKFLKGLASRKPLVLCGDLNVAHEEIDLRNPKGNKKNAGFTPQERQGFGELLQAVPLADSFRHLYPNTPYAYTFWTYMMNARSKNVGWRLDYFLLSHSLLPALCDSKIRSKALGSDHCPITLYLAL

Turning to “DNA ligase I (LIG1) (from UniProt P18858 1-919) (enzyme)”, the Kd (as a rule, the concentration at which binding is half-saturated) in data set [1] is 117 nM.

B1: nick DNA 3'-dG:T (dsDNA)
DNA 1: GCTGATGCGTG
DNA 2: GTCGGAC
DNA 3: GTCCGACTACGCATCAGC
modifications: 5'-phosphate on downstream strand; 5'-adenylated (DNA-AMP) in crystal
Turning to B1, the binding result in data set [2] was “binds”.

B2: nick DNA 3'-dA:C (dsDNA)
DNA 1: GCTGATGCGTA
DNA 2: GTCGGAC
DNA 3: GTCCGACCACGCATCAGC
modifications: 5'-phosphate on downstream strand
With B2, the binding result in data set [3] was “binds”.

B3: nick DNA 3'-dA:T (dsDNA)
DNA 1: GCTGATGCGTA
DNA 2: GTCGGAC
DNA 3: GTCCGACTACGCATCAGC
modifications: 5'-phosphate on downstream strand; 5'-adenylated (DNA-AMP) in crystal
For B3, the binding result in data set [2] was “binds”.
